Results as given in patent EP0826043B1.

Tests used:
Assay in all cases: cell-based or functional assay
[1] = molecular target: CD3 (TCR/CD3 complex) on Jurkat cells
[2] = molecular target: Fas cell surface receptor (human) (UniProt P25445)
[3] = molecular target: CD28 ligand B7-1 on mouse lymph node accessory cells (mouse) (UniProt Q00609)
[4] = molecular target: CD28 ligand B7-2 on mouse lymph node accessory cells (mouse) (UniProt P42082)
UniProt P42082, sequence (P42082 24-309): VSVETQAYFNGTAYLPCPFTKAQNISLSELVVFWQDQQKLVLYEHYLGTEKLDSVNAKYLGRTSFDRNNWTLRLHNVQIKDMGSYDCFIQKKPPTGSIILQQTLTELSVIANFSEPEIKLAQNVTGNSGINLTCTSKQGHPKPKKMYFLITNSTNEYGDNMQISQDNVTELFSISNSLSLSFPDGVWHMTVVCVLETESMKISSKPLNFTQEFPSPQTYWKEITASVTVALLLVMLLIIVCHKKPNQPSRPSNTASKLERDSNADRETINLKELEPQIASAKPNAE

UniProt Q00609, sequence (Q00609 38-306): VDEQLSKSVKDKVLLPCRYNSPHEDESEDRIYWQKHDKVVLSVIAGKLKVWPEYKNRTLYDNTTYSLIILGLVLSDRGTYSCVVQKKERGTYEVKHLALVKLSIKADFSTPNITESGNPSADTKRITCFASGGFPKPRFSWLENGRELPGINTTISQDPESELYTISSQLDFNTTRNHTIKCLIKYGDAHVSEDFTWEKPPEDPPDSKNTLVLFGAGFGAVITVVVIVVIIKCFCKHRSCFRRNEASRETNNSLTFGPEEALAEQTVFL
UniProt P25445, sequence (P25445 26-335): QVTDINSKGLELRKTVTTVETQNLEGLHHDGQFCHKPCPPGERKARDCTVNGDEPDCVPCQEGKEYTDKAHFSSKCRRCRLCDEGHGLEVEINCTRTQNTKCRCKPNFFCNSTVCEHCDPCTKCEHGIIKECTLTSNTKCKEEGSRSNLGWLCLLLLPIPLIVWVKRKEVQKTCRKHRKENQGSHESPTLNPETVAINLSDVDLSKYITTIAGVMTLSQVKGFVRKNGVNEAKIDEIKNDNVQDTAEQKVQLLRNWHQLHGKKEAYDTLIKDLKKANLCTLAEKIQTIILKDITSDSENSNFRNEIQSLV

## anti-CD3 (OKT3) (antibody)
[1]
  cell death of Neo Jurkat clones treated with plate bound anti-CD3 (propidium iodide exclusion): 30 to 60%

## CH-11 anti-Fas monoclonal antibody (Panvera)
[2]
  viability (propidium iodide exclusion) of control (Neo) Jurkat transfectants treated with Fas antibody at 10 ng/ml: < 10%

## CTLA4Ig (from Repligen) (Fc fusion)
[3]
  viability of activated Thy-1 positive T cells at 72 hrs: 20%
[4]
  viability of activated Thy-1 positive T cells at 72 hrs: 20%
